± gives the uncertainty stated by the source.
Assay: self-splicing fitness, log relative to wild type (ln ratio); higher = more splicing; Tetrahymena group I intron in knt gene, E. coli kanamycin selection, DiMSum; sequences stand for … in CUCUCU…GGAGGGAAAAGUUAUCAGGCAUGCACCUGGUAGCUAGUCUUUAAACCAAUAGAUUGCAUCGGUUUAAAAGGCAAGACCGUCAAAUUGCGGGAAAGGGGUCAACAGCCGUUCAGUACCAAGUCUCAGGGGAAACUUUGAGAUGGCCUUGCAAAGGGUAUGGUAAUAAGCUGACGGACAUGGUCCUAACCACGCAGCCAAGUCCUAAGUCAACAGAUCUUCUGUUGAUAUGGAUGCAGUUCACAGACUAAAUGUCGGUCGGGGAAGAUGUAUUCUUCUCAUAAGAUAUAGUCGGACCUCUCCUUAAUGGGAGCUAGCGGAUGAAGUGAUGCAACACUGGAGCCGCUGGGAACUAAUUUGUAUGCGAAAGUAUAUUGAUUAGUUUUGGAGUACUCGUGGUCG
In short: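 DiMSum derived fitness as the error-weighted combination of fold changes across replicates, kanamycin versus no kanamycin, normalised to wild type. E. coli BL21(DE3) held the library, which randomised all eight P1ex-region intron nucleotides within the knt kanamycin-resistance gene on pET-22b(+). Six replicate transformations grew overnight at 37°C or 30°C on LB agar with or without 25 μg/mL kanamycin, also containing 100 μg/mL carbenicillin, 50 μM IPTG and 0.2% rhamnose, and pooled colonies were amplicon-sequenced on an Illumina HiSeq 2500.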

Sequence | self-splicing fitness (ln) (30 °C) | self-splicing fitness (ln) (37 °C)
GGACAGCAAUAUUACGACGA | -1.77 ± 0.16 | -0.403 ± 0.19
UUUAAGCAAUAUUACGGAAU | -3.63 ± 0.26 | -2.36 ± 0.33
CUCCAGCAAUAUUACGGUAG | -3.88 ± 0.19 | -3.24 ± 0.27
GCCCAGCAAUAUUACGCGGG | -3.71 ± 0.2 | -2.31 ± 0.22
CAAAAGCAAUAUUACGCAAC | -2.59 ± 0.16 | -2.53 ± 0.27
AGGAAGCAAUAUUACGCACG | -0.986 ± 0.15 | -1.23 ± 0.18
CGUAAGCAAUAUUACGUCCA | -2.61 ± 0.17 | -1.25 ± 0.17
UAACAGCAAUAUUACGUAAG | -1.46 ± 0.07 | -1.25 ± 0.084
AAAAAGCAAUAUUACGCCGC | -2.19 ± 0.43 | -2.01 ± 0.33
CGUCAGCAAUAUUACGUCAG | -0.465 ± 0.069 | 0.175 ± 0.083
ACUUAGCAAUAUUACGUCAC | -3.8 ± 0.22 | -1.91 ± 0.2
AACGAGCAAUAUUACGGUCG | -2.14 ± 0.13 | -1.02 ± 0.14
AGAGAGCAAUAUUACGGCCG | -3.41 ± 0.36 | -1.39 ± 0.28
GUAUAGCAAUAUUACGUGUA | -1.79 ± 0.2 | -1.92 ± 0.18
GUGAAGCAAUAUUACGGACG | 0.234 ± 0.081 | 0.144 ± 0.092
CUGUAGCAAUAUUACGGGGG | -4.4 ± 0.37 | -2.68 ± 0.31
UACGAGCAAUAUUACGGAUU | -2.38 ± 0.33 | 
GAGCAGCAAUAUUACGGUGC | -2.98 ± 0.18 | -2.61 ± 0.18
GGUCAGCAAUAUUACGGCAG | -0.557 ± 0.081 | -0.497 ± 0.11
GGUUAGCAAUAUUACGACUA | 0.135 ± 0.11 | 0.423 ± 0.14
UCGCAGCAAUAUUACGGAUG | -1.44 ± 0.13 | -2.55 ± 0.16
CAGUAGCAAUAUUACGCACG | -1.27 ± 0.11 | -0.303 ± 0.17
AUAGAGCAAUAUUACGCCAA | -2.44 ± 0.24 | -0.839 ± 0.3
GUCGAGCAAUAUUACGAUUU | -0.559 ± 0.2 | -0.273 ± 0.19
CGUAAGCAAUAUUACGGUUU | -3.8 ± 0.2 | -2.71 ± 0.17
CUCGAGCAAUAUUACGUGCU | -2.36 ± 0.24 | 

Sequence | self-splicing fitness (ln) (30 °C) | self-splicing fitness (ln) (37 °C)
CGAAAGCAAUAUUACGCCUU | -2.73 ± 0.44 | -1.11 ± 0.28
CUAGAGCAAUAUUACGCUAU |  | -2.47 ± 0.48
UGUAAGCAAUAUUACGGUAU |  | -1.68 ± 0.21
UCUUAGCAAUAUUACGCGCC | -3.51 ± 0.22 | -2.42 ± 0.22
ACUGAGCAAUAUUACGAGCU |  | -1.02 ± 0.32
UGUCAGCAAUAUUACGUCCU | -0.0922 ± 0.06 | -0.325 ± 0.073
ACAAAGCAAUAUUACGCGUA | -1.4 ± 0.099 | -0.512 ± 0.097
CGAAAGCAAUAUUACGUGGG | -2.3 ± 0.098 | -2.46 ± 0.14
GAAUAGCAAUAUUACGAACG | -1.64 ± 0.1 | -0.336 ± 0.11
CGCUAGCAAUAUUACGAUAG | -1.9 ± 0.065 | -0.433 ± 0.085
AUAUAGCAAUAUUACGAGGG | -2.57 ± 0.43 | 
GUUAAGCAAUAUUACGCCUA | -0.752 ± 0.11 | -0.139 ± 0.11
CUUUAGCAAUAUUACGAGCG | -1.16 ± 0.073 | 0.0581 ± 0.12
ACCUAGCAAUAUUACGAAAC | -2.68 ± 0.15 | -2.31 ± 0.19
UACCAGCAAUAUUACGUACA | -0.719 ± 0.071 | -0.432 ± 0.1
CGGCAGCAAUAUUACGUUGC | -3.03 ± 0.27 | -2.57 ± 0.33
UAAUAGCAAUAUUACGUCAU | -4 ± 0.28 | -2.52 ± 0.22
ACGUAGCAAUAUUACGGUCC | -1.64 ± 0.15 | -0.357 ± 0.15
GGCUAGCAAUAUUACGUGCG | -0.139 ± 0.099 | 0.371 ± 0.15
CACGAGCAAUAUUACGACAC | -2.84 ± 0.23 | -2.18 ± 0.3
GUGAAGCAAUAUUACGCGAC | -0.927 ± 0.21 | -0.922 ± 0.26
UAUUAGCAAUAUUACGUUAC | -3.17 ± 0.23 | -2.86 ± 0.32
UAAAAGCAAUAUUACGUUGA | -2.41 ± 0.11 | -1.46 ± 0.11
CUUUAGCAAUAUUACGCUAU | -3.66 ± 0.31 | -1.68 ± 0.23
UGAUAGCAAUAUUACGAUUG | -0.719 ± 0.12 | -0.301 ± 0.15
GACAAGCAAUAUUACGAUGU | -1.66 ± 0.067 | -1.65 ± 0.11

Sequence | self-splicing fitness (ln) (30 °C) | self-splicing fitness (ln) (37 °C)
UAGAAGCAAUAUUACGUCGC | -3.7 ± 0.38 | -2.21 ± 0.32
GAUCAGCAAUAUUACGAGUG | -1.2 ± 0.06 | -1.21 ± 0.079
GCAGAGCAAUAUUACGCCGU | -1.7 ± 0.15 | -2.65 ± 0.41
GGCUAGCAAUAUUACGAUAC | -1.71 ± 0.16 | -0.0528 ± 0.14
GUGCAGCAAUAUUACGGAGA |  | -1.86 ± 0.38
GUACAGCAAUAUUACGUCAG | -4.26 ± 0.29 | -2.99 ± 0.26
AACUAGCAAUAUUACGAAAG | -2.79 ± 0.15 | -1.61 ± 0.18
CCGAAGCAAUAUUACGCCUA | -2.94 ± 0.22 | -2.62 ± 0.28
UCUUAGCAAUAUUACGGUGC | -3.26 ± 0.33 | -1.9 ± 0.33
GAUCAGCAAUAUUACGUGAC | -1.62 ± 0.094 | -1.63 ± 0.12
ACACAGCAAUAUUACGGGAC | -3.3 ± 0.14 | -2.12 ± 0.14
UAGCAGCAAUAUUACGCCAU | -4.36 ± 0.3 | -2.32 ± 0.14
CAUAAGCAAUAUUACGCAGG | -1.84 ± 0.18 | -1.22 ± 0.18
UAGGAGCAAUAUUACGCAAU |  | -1.73 ± 0.38
CCAUAGCAAUAUUACGUCGC | -3.46 ± 0.22 | -3.74 ± 0.31
UGGAAGCAAUAUUACGACCG | -0.874 ± 0.13 | -0.818 ± 0.17
GUUGAGCAAUAUUACGACGG | -3.52 ± 0.3 | -1.12 ± 0.28
UUGAAGCAAUAUUACGUUGG | -1.18 ± 0.089 | -0.305 ± 0.15
GGAAAGCAAUAUUACGCGUU | -3.16 ± 0.16 | -2.49 ± 0.19
UGCAAGCAAUAUUACGACUU | -2.34 ± 0.1 | -0.599 ± 0.11
ACCGAGCAAUAUUACGUCAU | -5.01 ± 0.34 | -2.68 ± 0.14
CGCGAGCAAUAUUACGAAAA | -1.55 ± 0.43 | -3.06 ± 0.4
GCCGAGCAAUAUUACGGCGC | -1.48 ± 0.23 | -0.221 ± 0.23
GCGGAGCAAUAUUACGGACU | -3.06 ± 0.35 | -0.993 ± 0.19
CACUAGCAAUAUUACGUCCG | -0.0671 ± 0.11 | 0.268 ± 0.13

From the supplement of paper PMC7877785
